Experiment [1] addresses EV-D68 A-particle (strain STL-2014-12) (Enterovirus D68, STL-2014-12 (KM881710), strain). As to the kind of experiment: cryo-EM structure.
Experiment [2] has as its target T1, EV-D68 capsid protein VP1 (strain STL-2014-12) (Enterovirus D68, STL-2014-12 (KM881710), strain).
T1 chain: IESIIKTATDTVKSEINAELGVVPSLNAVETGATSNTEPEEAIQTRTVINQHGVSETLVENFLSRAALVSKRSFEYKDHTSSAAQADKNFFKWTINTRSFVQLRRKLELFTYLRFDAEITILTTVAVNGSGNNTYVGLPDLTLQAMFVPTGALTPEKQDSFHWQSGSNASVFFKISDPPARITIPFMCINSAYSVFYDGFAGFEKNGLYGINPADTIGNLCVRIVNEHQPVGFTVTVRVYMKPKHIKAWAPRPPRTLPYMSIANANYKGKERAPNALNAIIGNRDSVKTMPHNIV
As to the kind of experiment: cryo-EM structure.

Experiment [3] addresses T2, EV-D68 procapsid (strain STL-2014-12) (Enterovirus D68, STL-2014-12 (KM881710), UniProt A0A097F8Q2;PDB, strain). In words: cryoEM with 2D classification.
Experiment [4] has as its target T3, EV-D68 capsid protein VP3 (strain STL-2014-12) (Enterovirus D68, STL-2014-12 (KM881710), strain).
T3 chain: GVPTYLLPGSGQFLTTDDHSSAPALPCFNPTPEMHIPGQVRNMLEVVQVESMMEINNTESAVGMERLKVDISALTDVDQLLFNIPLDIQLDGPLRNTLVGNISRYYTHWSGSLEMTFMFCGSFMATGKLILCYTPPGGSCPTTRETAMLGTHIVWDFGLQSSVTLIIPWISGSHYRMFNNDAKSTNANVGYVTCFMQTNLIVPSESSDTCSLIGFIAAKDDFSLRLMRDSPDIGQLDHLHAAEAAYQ
In words: cryo-EM structure.

Experiment [5] addresses T4, EV-D68 capsid protein VP2 (strain STL-2014-12) (Enterovirus D68, STL-2014-12 (KM881710), strain).
T4 chain: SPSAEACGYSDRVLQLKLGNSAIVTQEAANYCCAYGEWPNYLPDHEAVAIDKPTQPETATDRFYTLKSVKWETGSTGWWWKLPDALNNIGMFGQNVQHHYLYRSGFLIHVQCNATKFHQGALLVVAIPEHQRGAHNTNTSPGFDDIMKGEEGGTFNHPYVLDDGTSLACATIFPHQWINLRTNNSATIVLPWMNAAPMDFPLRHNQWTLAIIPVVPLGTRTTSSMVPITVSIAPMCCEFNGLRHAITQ
In words: cryo-EM structure.

Experiment [6] deals with T2, EV-D68 procapsid (strain STL-2014-12). In words: ELISA.

B1: Fab 11G1 (Fab, V domains shown)
VH: QVQLQQSGAELVRPGVSVKISCKGSGYIFTDYVMHWVKQSHSKSLEWIGVISTYYGDGSYNQKFKGKATMTVDKSSSTAYMELARLTSEDSAIYYCVRGENYYGVSGTMDYWGQGTSVTVSS
VL: DIVMSQSPSSLAVSVGEKVTMSCKSSQSLLYSNNQKNYLAWYQQKPGQSPQLLIYWASTRESGVPDRFTGSESGTDFTLTISSVKAEDLAVFYCQQYYNYPWTFGGGTKLEIK
The stoichiometry N is the number of molecules, sites or subunits per partner or assembly. Regarding B1, the “stoichiometry N” value in experiment [1] is 60 copies per particle. The binding result in experiment [2] is reported as “binds”.

B2: Fab 15C5 (Fab, V domains shown)
VH: QVQLQQSGTELAKPGASVKMSCKASGYTFTNYWMHWFKQRPGQGLEWIGYVNPNTDYTDYNHKFKDKATLTADKSSSTAYMQLSSLTSEDSAVYFCARGTFGNYASFAYWGQGTLV
VL: DIQMIQSPSSMFASLGDRVSLSCRASQDIRGNLDWYQQKPGGTIKLLIYSTSNLNSGVPSRFSGSGSGSDYSLTISSLESEDFADYYCLQRNAYPLTFGGGTKLEIK
As to B2, the binding result in experiment [3], in experiment [4] and in experiment [5] was “binds” in each case. Moreover, the “stoichiometry N” value in experiment [1] turned out to be 60 copies per particle.

B3: monoclonal antibody 15C5 (antibody, V domains shown)
VH: QVQLQQSGTELAKPGASVKMSCKASGYTFTNYWMHWFKQRPGQGLEWIGYVNPNTDYTDYNHKFKDKATLTADKSSSTAYMQLSSLTSEDSAVYFCARGTFGNYASFAYWGQGTLV
VL: DIQMIQSPSSMFASLGDRVSLSCRASQDIRGNLDWYQQKPGGTIKLLIYSTSNLNSGVPSRFSGSGSGSDYSLTISSLESEDFADYYCLQRNAYPLTFGGGTKLEIK
B3: the binding result in experiment [6] is reported as “binds”.

Source of the values: article PMC6727974 (Nature microbiology, 2018).
